# Source: paper PMC11413788, “The heterobivalent (SSTR2/albumin) radioligand [^67Cu]Cu-NODAGA-cLAB4-TATE enables efficient somatostatin receptor radionuclide theranostics” (Theranostics, 2024)
# Where two headings read alike, the source gives them in different places.
# Key:
# [1] = Tissue pharmacokinetics by quantitative SPECT imaging in MPC allograft mice; conditions: mouse, in vivo; for tissue uptake per volume at 1 h / tissue uptake per volume at 5 h / tissue uptake per volume at 72 h / tissue uptake per volume at 168 h / Heart (blood) concentration half-life eff. / Liver concentration half-life eff. / Total body contents half-life eff.: female; for tissue uptake per volume at 1 h / tissue uptake per volume at 5 h / tissue uptake per volume at 72 h / tissue uptake per volume at 168 h: Rj:NMRI-Foxn1^nu/nu nude, iv, 50 MBq, total radioactivity; for Heart (blood) concentration half-life eff. / Liver concentration half-life eff. / Total body contents half-life eff.: nude (Rj:NMRI-Foxn1^nu/nu)
# Description: All animal experiments were carried out according to the guidelines of the German Regulations for Animal Welfare and have been approved by the local Ethical Committee for Animal Experiments. MPC cells (4 × 10^6) were injected subcutaneously into the shoulder of 10-14‑week‑old female nude mice (Rj:NMRI-Foxn1^nu/nu, Janvier Labs, Le Genest-Saint-Isle, France). Prior to treatment and imaging procedures, anesthesia was induced and maintained with inhalation of 10 % (v/v) desflurane in 30/10 % (v/v) oxygen/air. During anesthesia, animals were continuously warmed at 37 °C. Body weight was monitored three times per week and tumor diameters were measured using a caliper. Tumor volume was calculated assuming a tri‑axial ellipsoid with the diameters a, b, and c using the formula V = π/6 × a × b × c. For urine collection, animals were separated in clear conventional rodent boxes. After spontaneous micturition, voided urine was aspirated with a pipette tip, diluted 1:2 with ultrapure water and stored at -80 °C until further processing. For blood sampling, animals were placed in a restrainer and 50 µL of blood were collected from a lateral tail vein using a syringe needle rinsed with heparin. Blood samples were mixed with 4 µL of a 10 % (w/v) aqueous potassium-EDTA solution and kept at 4 °C until further processing. Animals were sacrificed using CO2 inhalation and cervical dislocation.
# Tumor-bearing mice were treated with the SSTR2 radioligands at a single initial activity dose of 50 MBq delivered in 0.2 mL of 0.154 mol/L NaCl(aq) through injection into a tail vein (see Supporting information, Table S 1 for further details). Small-animal single-photon emission computed tomography (SPECT) was performed using the Mediso NanoScan® SPECT/CT (Mediso Medical Imaging Systems, Budapest, Hungary). […] With each SPECT scan, a corresponding CT image was recorded and used for anatomical referencing and attenuation correction. Details on image acquisition and reconstruction parameters are included in the Supporting information.
# Regions of interest (ROIs) were generated using tissue-specific signal intensity thresholds. ROI-averaged activity concentrations in tissues [MBq/mL] were determined. Details on SPECT image resolution, image quantification tests, and tissue delineation are included in the Supporting information.
# (§1) Unless specified otherwise, all activity values are reported without decay correction. Time courses of normalized activity concentrations [% initial A/mL] (organs, tumors) or normalized activity amounts [% initial A] (total body, urinary bladder) were analyzed by non-linear regression using the 'One-phase decay', 'Plateau followed by one-phase decay', or 'Two-phase decay' models implemented in Prism 10 (GraphPad Software), with extrapolated y‑values approaching a lower limit constrained to 0. The normalized time-cumulated activity per milliliter of tissue [% initial A/mL × d] was calculated from areas under time-activity curves. For dose estimation in tumors and kidneys, these values were further converted into total time-cumulated organ activity per initial activity dose [MBq × h/MBq] using a realistic dosimetry model for 30‑g‑mice implemented in Olinda 2.2.3 (Hermes Medical Solutions AB, Stockholm, Sweden). The physical density of tissues was assumed to be 1 g/cm^3. The radionuclide-specific mean absorbed tissue dose DT [Gy] in tumors and kidneys was calculated using the sphere model in Olinda 2.2.3 (Hermes Medical Solutions AB).
# Method: Extraction of tissue -specific activity concentrations from SPECT/CT images Tissue-specific regions of interest (ROIs) were generated in ROVER 3.0.77h (ABX). Sphere masks were positioned to pre -select tissue -specific regions for delineation. ROIs were generated within the masks using tissue -specific threshold -based delineation (% of maximum voxel intensity within the given mask)
# [2] = cited from earlier work
# [3] = mouse, in vivo; cited from earlier work
# GOT‑1 xenografts = conditions: mouse, in vivo; cited from earlier work
# [4] = test system: HEK293-SSTR2+ tumor xenografts; conditions: within seven days, cited from earlier work
# [5] = human
# Description: Tissue-specific pharmacokinetic profiles of radioligands in mice were transformed into human time scale and organ masses using allometric scaling, and dose calculations were performed as reported elsewhere, with some modifications. In brief, projected cumulated activity in human organs was calculated by curve fitting as described above for investigations in mice. Calculations were performed separately for female and male subjects. Cumulated activity in the urinary bladder was determined assuming a voiding interval of four hours. Projected human doses were calculated for male and female subjects using the ICRP 89 Adult Female (60 kg) and ICRP 89 Adult Male (73 kg) models implemented in Olinda 2.2.3 (Hermes Medical Solutions AB).
# NCI‑H69 xenografts = conditions: mouse, in vivo; cited from earlier work
# [6] = Absorbed dose calculation in tumors and kidneys of MPC allograft mice; conditions: mouse, in vivo
# Description: as §1
# MPC cells [7] = assay: Uptake of radioligands in intact MPC cells (acid wash); assay type: cell-based, mouse; conditions: 25 nmol/L; for Uptake fraction: non-acid-releasable fraction normalized to specifically bound radioligand
# Description: Uptake of SSTR2 radioligands was measured and analyzed as previously described, with some modifications. In brief, radioligands were prepared at a molar activity of 25 MBq/nmol. […] Non-specific binding and uptake were measured in presence of 1 µmol/L acetyl-TATE. The uptake fraction of radioligands was measured after acid wash with Dulbecco's phosphate-buffered saline containing 0.9 mmol/L CaCl2, 0.5 mmol/L MgCl2, and 0.05 mol/L glycine, pH 2.8, for 5 min.
# [8] = cited from earlier work; remark: listed apart in the source
# MPC cells [9] = assay type: cell-based, mouse; conditions: relative loss normalized to initial SSTR2-specific binding
# Description: MPC cells (2.25 × 10^5/well) were seeded into collagen coated CELLSTAR 48‑well microplates (Greiner Bio‑One, 67180) and grown for three days. Cell culture medium and washing buffer were pre-warmed at 37 °C, unless specified otherwise. Radioligands were prepared at a molar activity of 40 MBq/nmol. Cells were incubated with the radioligands at a final concentration of 2.5 nmol/L in 0.5 mL of cell culture medium for 1 hour at 37 °C. Non-specific binding was determined in presence of 1 µmol/L acetyl-TATE. Binding to plastic surfaces was determined in cell-free cavities. At the end of radioligand exposure, incubation medium was removed, and cells were washed three times with Dulbecco's phosphate-buffered saline containing 0.9 mmol/L CaCl2 and 0.5 mmol/L MgCl2. Cells were overlayed with 0.5 mL of radioligand-free medium and further incubated at 37 °C for a total duration of 24 hours. At specific sampling points (1, 2, 5, and 24 hours), supernatants were removed from all cavities. […] Activity of cell homogenates was measured using the gamma counter Wizard^2 2480 (PerkinElmer, Waltham, MA, USA). Release kinetics were analyzed by non-linear regression using the 'two phase decay' model implemented in Prism 10 (GraphPad Software) with the 'Top' and 'Bottom' parameters constrained at 100 %, and 0 %, respectively.
smiles,measurement,setting,value
"C[C@@H](O)[C@H](NC(=O)[C@@H]1CSSC[C@H](NC(=O)[C@@H](Cc2ccccc2)NC(=O)CN2CCN(CC(=O)O)CCN(CC(=O)O)CCN(CC(=O)O)CC2)C(=O)N[C@@H](Cc2ccc(O)cc2)C(=O)N[C@H](Cc2c[nH]c3ccccc23)C(=O)N[C@@H](CCCCN)C(=O)N[C@@H]([C@@H](C)O)C(=O)N1)C(=O)O [[^177Lu]Lu‑DOTA-TATE, metal not drawn]",tissue uptake per volume at 1 h,[1]; Heart,0.21 ± 0.18 %ID/mL
same,tissue uptake per volume at 1 h,[1]; Kidneys,4.05 ± 0.01 %ID/mL
same,tissue uptake per volume at 5 h,[1]; Kidneys,3.23 ± 0.04 %ID/mL
same,tissue uptake per volume at 72 h,[1]; Kidneys,0.08 ± 0.01 %ID/mL
same,tissue uptake per volume at 1 h,[1]; Liver,0.24 ± 0.04 %ID/mL
same,tissue uptake per volume at 72 h,[1]; Tumor,6.79 ± 0.55 %ID/mL
same,tissue uptake per volume at 168 h,[1]; Tumor,1.33 ± 0.11 %ID/mL
same,tissue uptake per volume at 1 h,"[1]; 1 h, decay-corrected, Am 40 MBq/nmol, read-out: Tumor",22.7 ± 1.84 %ID/mL
same,Heart (blood) concentration half-life eff.,[1],7.8 min
same,Liver concentration half-life eff.,[1],68.4 ± 1.2 min
same,Total body contents half-life eff.,[1],15 min
same,release from MPC tumors,[1],94%
same,total absorbed kidney doses well tolerated without acute nephrotoxicity,[2]; clinical experience,up to 23 Gy
same,human effective dose in clinical dosimetry,"[2]; human, in vivo",0.069 mSv/MBq
same,"threshold dose for proximal tubular damage, absorbed in renal cortex",[3],24 Gy
same,absorbed tumor dose per administered activity,GOT‑1 xenografts,0.27 Gy
same,release from tumor xenografts,GOT‑1 xenografts,47%
same,total absorbed dose in tumors,GOT‑1 xenografts,8.1 Gy
same,release from tumor xenografts,[4],95%
same,extrapolated female blood effective half-life,[5],49.8 min
same,absorbed tumor dose per administered activity,NCI‑H69 xenografts,0.33-0.36 Gy/MBq
same,release from tumor xenografts,NCI‑H69 xenografts,68−85%
same,total absorbed dose in tumors,NCI‑H69 xenografts,10.0-10.2 Gy
same,"DT, Kidneys (mean absorbed dose in kidneys)",[6],2.81 ± 0.14 Gy
same,absorbed doses in MPC tumors,[6],22.0-41.1 Gy
same,estimated absorbed dose in kidneys,[6],2.42-2.81 Gy/50 MBq
same,highest absorbed dose in MPC tumors per administered activity,[6],0.80-0.82 Gy/MBq
"C[C@@H](O)[C@H](NC(=O)[C@@H]1CSSC[C@H](NC(=O)[C@@H](Cc2ccccc2)NC(=O)CN2CCN(CC(=O)O)CCN(CC(=O)O)CCN(CC(=O)O)CC2)C(=O)N[C@@H](Cc2ccc(O)cc2)C(=O)N[C@H](Cc2c[nH]c3ccccc23)C(=O)N[C@@H](CCCCN)C(=O)N[C@@H]([C@@H](C)O)C(=O)N1)C(=O)O [[^64Cu]Cu‑DOTA-TATE, metal not drawn]",release from tumor xenografts,"[4]; reported, reference not given",86%
same,Uptake fraction,MPC cells [7]; listed as DOTA ^64Cu,61 ± 4.6%
"C[C@@H](O)[C@H](NC(=O)[C@@H]1CSSC[C@H](NC(=O)[C@@H](Cc2ccccc2)NC(=O)CCC(C(=O)O)N2CCN(CC(=O)O)CCN(CC(=O)O)CC2)C(=O)N[C@@H](Cc2ccc(O)cc2)C(=O)N[C@H](Cc2c[nH]c3ccccc23)C(=O)N[C@@H](CCCCN)C(=O)N[C@@H]([C@@H](C)O)C(=O)N1)C(=O)O (stereo partly drawn) [[^67Cu]Cu‑NODAGA-TATE, metal not drawn]",tissue uptake per volume at 1 h,[1]; Heart,0.35 ± 0.13 %ID/mL
same,tissue uptake per volume at 1 h,[1]; Kidneys,6.69 ± 0.46 %ID/mL
same,tissue uptake per volume at 5 h,[1]; Kidneys,3.87 ± 0.26 %ID/mL
same,tissue uptake per volume at 1 h,[1]; Liver,0.63 ± 0.01 %ID/mL
same,tissue uptake per volume at 5 h,[1]; Liver,0.57 ± 0.01 %ID/mL
same,tissue uptake per volume at 72 h,[1]; Liver,0.15 ± 0.04 %ID/mL
same,tissue uptake per volume at 168 h,[1]; Liver,0.03 ± 0.02 %ID/mL
same,tissue uptake per volume at 1 h,[1]; Tumor,17.7 ± 1.83 %ID/mL
same,tissue uptake per volume at 5 h,[1]; Tumor,13.5 ± 1.4 %ID/mL
same,tissue uptake per volume at 72 h,[1]; Tumor,0.14 ± 0.01 %ID/mL
same,Heart (blood) concentration half-life eff.,[1],7.8 min
same,Liver concentration half-life eff.,[1],1210 ± 241 min
same,Total body contents half-life eff.,[1],19.2 min
same,extrapolated female blood effective half-life,[5],52.8 min
same,"DT, Kidneys (mean absorbed dose in kidneys)",[6],2.42 ± 0.20 Gy
same,estimated absorbed dose in kidneys,[6],2.42-2.81 Gy/50 MBq
"C[C@@H](O)[C@H](NC(=O)[C@@H]1CSSC[C@H](NC(=O)[C@@H](Cc2ccccc2)NC(=O)CCC(C(=O)O)N2CCN(CC(=O)O)CCN(CC(=O)O)CC2)C(=O)N[C@@H](Cc2ccc(O)cc2)C(=O)N[C@H](Cc2c[nH]c3ccccc23)C(=O)N[C@@H](CCCCN)C(=O)N[C@@H]([C@@H](C)O)C(=O)N1)C(=O)O (stereo partly drawn) [[^64Cu]Cu‑NODAGA-TATE, metal not drawn]",effective uptake lower compared to [177Lu]Lu-DOTA-TATE,MPC cells [7]; MPC cells,77%
same,Uptake fraction,MPC cells [7],64 ± 4.1%
same,plasma half-life,[8],> 1440 min
same,24 h release,MPC cells [9],73 ± 1.9^ # %
same,Fast fraction,MPC cells [9]; 1 hour exposure,42 ± 3.3%
"C[C@@H](O)[C@H](NC(=O)[C@@H]1CSSC[C@H](NC(=O)[C@@H](Cc2ccccc2)NC(=O)CN2CCN(CC(=O)O)CCN(CC(=O)O)CCN(CC(=O)O)CC2)C(=O)N[C@@H](Cc2ccc(O)cc2)C(=O)N[C@H](Cc2c[nH]c3ccccc23)C(=O)N[C@@H](CCCCN)C(=O)N[C@@H]([C@@H](C)O)C(=O)N1)C(=O)O [[^68Ga]Ga‑DOTA-TATE, metal not drawn]",Uptake fraction,MPC cells [7]; listed as DOTA ^68Ga,87 ± 1.9%
